Patent publication US20070027089A1
Where no end group is shown, it is not given here. [ ]: non-standard residue; d: D form. Ahx = NCCCCCC(=O)O

Target: amyloid precursor protein APP695 in HEK 293-APP cells (human), P05067
Experiment: cell-based or functional assay

Sequence of amyloid precursor protein APP695 in HEK 293-APP cells (human), P05067 (P05067 18-770): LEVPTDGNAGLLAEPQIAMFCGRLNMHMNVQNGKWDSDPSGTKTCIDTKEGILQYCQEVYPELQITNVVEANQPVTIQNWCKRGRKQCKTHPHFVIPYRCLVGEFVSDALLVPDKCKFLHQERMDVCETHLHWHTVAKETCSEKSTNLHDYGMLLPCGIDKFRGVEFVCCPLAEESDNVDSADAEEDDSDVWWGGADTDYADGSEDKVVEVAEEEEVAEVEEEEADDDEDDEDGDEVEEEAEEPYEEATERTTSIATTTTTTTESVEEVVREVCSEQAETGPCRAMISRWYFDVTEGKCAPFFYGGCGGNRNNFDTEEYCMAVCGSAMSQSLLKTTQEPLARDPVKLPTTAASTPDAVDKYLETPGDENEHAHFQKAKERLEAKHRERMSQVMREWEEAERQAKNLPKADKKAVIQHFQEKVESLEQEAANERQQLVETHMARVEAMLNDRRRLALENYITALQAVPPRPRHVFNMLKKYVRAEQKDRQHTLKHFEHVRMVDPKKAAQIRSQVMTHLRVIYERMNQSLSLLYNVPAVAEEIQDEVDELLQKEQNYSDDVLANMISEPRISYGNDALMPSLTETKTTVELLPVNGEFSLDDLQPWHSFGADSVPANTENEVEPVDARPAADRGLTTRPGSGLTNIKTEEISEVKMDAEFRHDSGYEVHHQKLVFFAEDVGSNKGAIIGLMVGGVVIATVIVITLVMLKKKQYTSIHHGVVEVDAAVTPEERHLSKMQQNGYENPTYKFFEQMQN

B1: 6-aminohexanoic acid-c-Sub M ΔN3C1 (NH2-(CH2)5-CO-Cys-Ile-Gln-Ile-His-Phe-NH2) (peptide)
peptide: [Ahx]CIQIHF-NH2
modifications: N-terminus assumed
SMILES: CC[C@H](C)[C@H](NC(=O)[C@H](CCC(N)=O)NC(=O)[C@@H](NC(=O)[C@H](CS)NC(=O)CCCCCN)[C@@H](C)CC)C(=O)N[C@@H](Cc1c[nH]cn1)C(=O)N[C@@H](Cc1ccccc1)C(N)=O
reduction of Aβ released from HEK293-APP cells (sandwich ELISA) at 6.25 µM peptide: 70%
